Measurements from patent US20240093255A1, “BIOSYNTHETIC PRODUCTION OF 2-FUCOSYLLACTOSE” (Conagen Inc., priority 2020, published 2024).

How the values were obtained:
Assay type in all cases: biochemical
[1] = GDP-mannose-3,5-epimerase candidate screening (GDP-D-mannose to GDP-L-galactose); conditions: enzymatic screening of candidates
Procedure: The reaction conditions were: 2 mM GDP-D-mannose, 1 mM NAD^+, 50 mM Tris-HCl, pH 8.0 and with or without 0.33 mg/mL At GME. The reactions were incubated at room temperature for 16 hours, quenched by heating at 99° C. for 10 mins, and analyzed using HPLC.

[2] = FutC candidate activity in vitro using the de novo synthesis pathway (2′-FL by HPLC); conditions: 0.2 mg/mL fucosyltransferase, 1 mM GDP-mannose, 80 mM lactose, room temperature, 16 hours
Procedure: The final step in the novel path to 2′-FL requires an α-1,2-fucosyltransferase. Various FutC candidates were screened for soluble expression in E. coli and fucosyltransferase activity. The candidate enzymes show different solubilities and enzymatic activity for 2′-FL synthesis. For the candidates that have highly soluble expression, their activity was tested in vitro using the de novo synthesis pathway. The reaction conditions were: 50 mM Tris-HCl pH 8.0, 2 mM NADPH, 0.1 mM NADP^+, 1 mM GDP-mannose, 80 mM lactose, 0.9 mg/mL Ec Gmd (SEQ 11), 0.2 mg/mL Ec WcaG (SEQ ID NO: 7) and 0.2 mg/mL of the fucosyltransferase candidates. The reactions were incubated at room temperature for 16 hours. The reactions were quenched by heating at 99° C. for 10 minutes, and then analyzed by HPLC.

[3] = FKP activity towards L-galactose (GDP-L-galactose production)
Procedure: FKP naturally catalyzes the conversion of L-fucose into GDP-L-fucose. It has been reported that FKP also could generate GDP-L-galactose from L-galactose (Ohashi et al. 2017). FKP was cloned into pET21, expressed and purified as described in Example 1. The activity of FKP towards L-galactose was assayed under the following conditions: 2 mM L-galactose, 2 mM ATP, 2 mM GTP, 4 mM MgCl2, 50 mM Tris-HCl, pH 7.5 and with or without 0.25 g/L FKP. The samples were incubated at room temperature overnight, and quenched by heating at 99° C. for 10 minutes, and analyzed using LC-MS.
Further work was conducted to optimize the FKP reaction with L-galactose as the substrate, by varying reaction temperature, substrate concentrations, and adding an ATP/GTP regeneration system. The reaction conditions were: 50 mM Tris-HCl pH 7.5, 5 mM MgCl2, 5 mM L-galactose, 2 mM ATP, 2 mM GTP, 10 mM PEP, 1 U pyruvate kinase, and with or without 0.8 mg/mL FKP. The reaction was incubated at 37° C. for 44 hours. The reaction was quenched by heating at 99° C. for 10 minutes. The samples were analyzed using HPLC (FIG. 5).

[4] = GDP-L-fucose inhibition assay of GMD enzymes (GDP-4-keto-6-deoxymannose detection); conditions: 350 μM GDP-L-fucose; 1 mM GDP-mannose, 0.5 mg/mL GMD
Procedure: To test for inhibition, the mutants were expressed and purified as described in Example 7, and assayed at a range of GDP-L-fucose concentrations. The assay conditions were as follows: 50 mM Tris pH 7.5, 1 mM GDP-mannose, 0.5 mM NADP^+, 0.5 mg/mL dehydratase (GMD) enzyme, and 0 μM, 70 μM or 350 μM GDP-L-fucose. The reactions were quenched at 99° C. for 10 minutes, and the enzymes' respective activities were analyzed using the nucleotide sugar LC-MS method by GDP-4-keto-6-deoxymannose detection.

[5] = Dehydratase screening for GDP-L-fucose synthesis from GDP-L-galactose
Procedure: Four enzymes were screened: At Gmd (SEQ ID NO: 5), Hs Gmd (SEQ ID NO: 9), Ec Gmd (SEQ ID NO: 11) and Yp DmhA (SEQ ID NO: 13), while Ec WcaG (SEQ ID NO: 7) is known to be a reductase. […] The reactions were incubated for 16 hours at 37° C., and then quenched by heating at 99° C. for 10 minutes. Samples were analyzed by both HPLC and LC-MS methods.

## At GME: GDP-mannose-3,5-epimerase from Arabidopsis thaliana, SEQ ID NO: 3
[1]
  GDP-mannose-3,5-epimerase activity: higher activity than Os GME

B1: FutC13: α-1,2-fucosyltransferase candidate from Candidatus Brocadia sapporoensis, SEQ ID NO: 45 (protein)
chain: MQLKRWPQLKPTDAAVFGSGKQTIMIIVKLMGGLGNQMFQYAAGRRLAEKLGVKLKLDIEMFKDNTLRKYELGAFNIQECFAAVEEIERLTVVKRGIVEKALDRVFKRPIRRPGGYVAEKYFVFDPSILQLPDQVYLDGYWQSEKYFAEIETIIREEFTIKYPQTDKNKVLSDSIKSGNSVTVHVRRGDYVNNPETNSLHGVCGIDYYQRCIDFIITKIANPHFFFFSDDPEWVKNNLKIKYESTVVEHNGAEKCYEDLRLLSQGKYHIIANSTFSWWGAWLNKNPEKMVVAPEKWFKKEDVNTKGFIPEDWIRL
modifications: Candidatus Brocadia sapporoensis
[2]
  α-1,2-fucosyltransferase activity for 2′-FL production: have α-1,2-fucosyltransferase activity for 2′-FL production

B2: FutC 18: α-1,2-fucosyltransferase candidate from Rhizobiales bacterium, SEQ ID NO: 55 (protein, listed as Rhizobiales bacterium)
chain: MIVTRIVGGLGNQMFQYAVGRALSAKTGQEFKLDLSEMDRYKVHALQLDQFNIKGVRAGRHEIPFRPRKSFFGKILTALKNRNRIPQVFETTPSFDPSVLQRKGSCYLSGYWQSEKYFSDCSELIRADFSLKGPMSDERQAVLSQIRDAEAPVSVHVRRGDYVTNTTANSIHGTCEPEWYRQAMRKISDRTGDPTFFVFSDDPMWARSNLPTYEKMVFVEPRADGKDAEDMHLMSSCQSHIIANSTFSWWGAWLNPRQDKRVIAPARWFRAEDRDSTDLVPAQWERL
[2]
  α-1,2-fucosyltransferase activity for 2′-FL production: have α-1,2-fucosyltransferase activity for 2′-FL production

B3: FutC10: α-1,2-fucosyltransferase candidate from Thermosynechococcus elongatus, SEQ ID NO: 39 (protein, listed as Thermosynechococcus elongatus)
chain: MIIVRLCGGLGNQMFQYAAGLAAAHRIGSEVKFDTHWFDATCLHQGLELRRVFGLELPEPSSKDLRKVLGACVHPAVRRLLSRRLLRALRPKSLVIQPHFHYWTGFEHLTDNVYLEGYWQSERYFSNIADIIRQQFRFVEPLDPHNAALMDEMQSGVSVSLHIRRGDYFNNPQMRRVHGVDLSEYYPAAVATMIEKTNAERFYVFSDDPQWVLEHLKLPVSYTVVDHNRGAASYRDMQLMSACRHHIIANSTFSWWGAWLNPRPDKVVIAPRHWFNVDVFDTRDLYCPEWIVL
[2]
  α-1,2-fucosyltransferase activity for 2′-FL production: have α-1,2-fucosyltransferase activity for 2′-FL production

B4: FKP: fucokinase/guanylyltransferase from Bacteroides fragilis, SEQ ID NO: 1 (protein, listed as Bacteroides fragilis)
chain: MQKLLSLPPNLVQSFHELERVNRTDWFCTSDPVGKKLGSGGGTSWLLEECYNEYSDGATFGEWLEKEKRILLHAGGQSRRLPGYAPSGKILTPVPVFRWERGQHLGQNLLSLQLPLYEKIMSLAPDKLHTLIASGDVYIRSEKPLQSIPEADVVCYGLWVDPSLATHHGVFASDRKHPEQLDFMLQKPSLAELESLSKTHLFLMDIGIWLLSDRAVEILMKRSHKESSEELKYYDLYSDFGLALGTHPRIEDEEVNTLSVAILPLPGGEFYHYGTSKELISSTLSVQNKVYDQRRIMHRKVKPNPAMFVQNAVVRIPLCAENADLWIENSHIGPKWKIASRHIITGVPENDWSLAVPAGVCVDVVPMGDKGFVARPYGLDDVFKGDLRDSKTTLTGIPFGEWMSKRGLSYTDLKGRTDDLQAASVFPMVNSVEELGLVLRWMLSEPELEEGKNIWLRSERFSADEISAGANLKRLYAQREEFRKGNWQALAVNHEKSVFYQLDLADAAEDFVRLGLDMPELLPEDALQMSRIHNRMLRARILKLDGKDYRPEEQAAFDLLRDGLLDGISNRKSTPKLDVYSDQIVWGRSPVRIDMAGGWTDTPPYSLYSGGNVVNLAIELNGQPPLQVYVKPCKDFHIVLRSIDMGAMEIVSTFDELQDYKKIGSPFSIPKAALSLAGFAPAFSAVSYASLEEQLKDFGAGIEVTLLAAIPAGSGLGTSSILASTVLGAINDFCGLAWDKNEICQRTLVLEQLLTTGGGWQDQYGGVLQGVKLLQTEAGFAQSPLVRWLPDHLFTHPEYKDCHLLYYTGITRTAKGILAEIVSSMFLNSSLHLNLLSEMKAHALDMNEAIQRGSFVEFGRLVGKTWEQNKALDSGTNPPAVEAIIDLIKDYTLGYKLPGAGGGGYLYMVAKDPQAAVRIRKILTENAPNPRARFVEMTLSDKGFQVSRS
[3]; 2 mM L-galactose, 0.25 g/L FKP, room temperature overnight, LC-MS
  conversion of L-galactose to GDP-L-galactose: catalyzes the conversion of L-galactose to GDP-L-galactose
[3]; 5 mM L-galactose, 0.8 mg/mL FKP, PEP/pyruvate kinase regeneration, 37° C., 44 hours
  final titer of GDP-L-galactose: 2.5 g/L

B5: At WT: GDP-mannose-4,6-dehydratase from Arabidopsis thaliana, wild type, SEQ ID NO: 5 (protein, listed as Arabidopsis thaliana)
chain: MASENNGSRSDSESITAPKADSTVVEPRKIALITGITGQDGSYLTEFLLGKGYEVHGLIRRSSNFNTQRINHIYIDPHNVNKALMKLHYADLTDASSLRRWIDVIKPDEVYNLAAQSHVAVSFEIPDYTADVVATGALRLLEAVRSHTIDSGRTVKYYQAGSSEMFGSTPPPQSETTPFHPRSPYAASKCAAHWYTVNYREAYGLFACNGILFNHESPRRGENFVTRKITRALGRIKVGLQTKLFLGNLQASRDWGFAGDYVEAMWLMLQQEKPDDYVVATEEGHTVEEFLDVSFGYLGLNWKDYVEIDQRYFRPAEVDNLQGDASKAKEVLGWKPQVGFEKLVKMMVDEDLELAKREKVLVDAGYMDAKQQP
[4]
  decrease in activity: 95%
[5]; 5 mM GDP-L-Gal, 2.4 g/L At Gmd, 3.2 g/L Ec WcaG, 16 hours, 37° C.
  dehydratase activity towards GDP-L-galactose: has dehydratase activity towards GDP-L-galactose
[5]; among four potential dehydratases screened
  initial dehydratase activity: highest initial activity
